# From the DeepSol protein solubility set
# Test: soluble on expression in E. coli; label from the status in PepcDB or PDB records
row,Sequence,soluble on expression in E. coli
1,MSKVAMVTGGAQGIGRGISEKLAADGFDIAVADLPQQEEQAAETIKLIEAADQKAVFVGLDVTDKANFDSAIDEAAEKLGGFDVLVNNAGIAQIKPLLEVTEEDLKQIYSVNVFSVFFGIQAASRKFDELGVKGKIINAASIAAIQGFPILSAYSTTKFAVRGLTQAAAQELAPKGHTVNAYAPGIVGTGMWEQIDAELSKINGKPIGENFKEYSSSIALGRPSVPEDVAGLVSFLASENSNYVTGQVMLVDGGMLYN,soluble
2,MSKVKGDLEKSDKRPPSSMSTGSADSGVFSSGVHASSPSHSQGSSSQSGPPSPTTQLNSLLFETANLIAVNEQLRKEIAENKQIQTNQMRALRYSSNPVDQPFVANSISPHHGFPQRPPRGERRMQKPESYKTVICQAWLESKTCTFAENCRFAHGEEELRPAKLESRQNNKYKTKLCDKYTTTGLCPYGKRCLFIHPDNQPNAYIRADKLYEVSQRHALADLRDHVESQIMTGNTRNSYNQQPPPMGGLEMQSSPMKSSSDSSHMRSPMAQMNCETTRPHPSWPLESSSFFLPPEMSSINNNNLMSPFETPFPNGSTGIQPHFVTAKRRAAFPPVPSNFQQDDDNMSSIPGFDHLAEDMAKHLELW,not soluble
3,MSLAAPNAASGVLKLYRAYREQAQRLSDLSDLLAREGHETALSSTRLPIDEVRHVFENRPAYFHAIDAAAEELHKQLSTGDDLASGLRAWLQKNHGIVVRTLPVHAMPNLRRRYDRHSMRLFLSERLSQPDQLREMAMETCLLALREEIGTELEALGLKGEEARRIARFELARYAAHALMMPYGAFLAAAQRAKYDLDVLRSRFNVSFEQAANRLVSLQRPTTAAIPFFLMEIDNAGNRFRLAGAGGFPRARFGGLCPRLNIHAAFAQPGQVLVESVEMPDGDAFLTVSRTLEGEGHHHHHH,not soluble
4,MSLAAPTLTGGKLTVGIQGTHAELGVLLYPGVQMAAVHGLSDLFEVANRIAGEQPQAQLPRLRVSHWQASGELPPVRVHDSLAEAPGALLAVLIPPSLAGFSSHQSSAALMDWLRQQHAAGATLGGVCVGSILLAESGLLDGRSATTHWTSAQAFAERYPQVRLEADKPIVDDGDLITSAGLMAWAELGLRLVNRLLGPSIASATARFLVMEHSASASQCGSNFAPILSHGDGAILKLQHWLQANGAVDVSLPVMAQQAGLEPRTLLRRFRAATGLKPTQYCQHLRVGKARELLEFTNGSIDHIAWTVGYQDPATFRSLFRKITGLAPSEYRNRFGATSTAASREGHHHHHH,soluble
5,MSLADIFDFPRDARNVARADGKEADMGGEAPQTMLMRPQGVPDQVWNAVLSVDRMRRLKGMTYREIPVPNSMANFGIGVALECDETYASGWIMILYSLKFREDWHSHWRCVAFASLPLPDKEDDCLTPGMYWDMMMERLNPNDSEHVSGTVTVTQNTAFGHDPDVPRVGCEIRVSWTPLDYADGGLDAGSQVGQWASFLRSMTQSEEEGHHHHHH,soluble
6,MSLAGHQPILTVSEVTRHLKRTIEDDPLLQDVWMRGEISNFKHHSRGHMYFTLKDEHAKMSAVMFAGNNRFLNFKPENGMKVIVRGEVNVYEPFGQYQLYALEMQPDGIGNLYLAYEQLKERLEQEGLFKEENKKPLPPVARQIAIVTSPTGAAIRDIASTIKRRFPVAQLTLLPVLVQGEEAPHSIAKAIRQANEVGGFDLLIVGRGGGSIEELWAFNEELVARAIYQSVIPIISAVGHETDYTIADFVADVRAATPTGAAELAVPDLKELISRVNQYTERLKRAQHELLKRQKEHLQRLQKSYAFRYPAQLVKQKELELDQQLERLTKHQRRMVSDAKDRLSQLEYRLKRIHPEGRLRQAEQARVKLEVLLKKEFQQMMERKEQQFQQAISSLNLLSPLRVMERGYALPYKAKTQELIKSVKQVRMNDRLHLRVTDGQLICDVKEIESESGGEGYDQKEGHHHHHH,not soluble
7,MSLAHIRTRETYGTRRLQTELAENGIIVGRDRLARLRKELRLRCKQKRKFRATTNPNHNLPVAPNLLNQTFAPTAPNQVWVADLTYVATQEGWLYLAGIKDVYTCEIVGYAMGERMTKELTGKALFMALRSQRPPAGLIHHSDRGSQYCAYDYRVIQEQSGLKTSMSRKGNCYDNAPMESFWGTLKNESLSHYRFNNRDEAISVIREYIEIFYNRQRRHSRLGNISPAAFRENIIRWLLKKRTNGSVRYCQYTSKVAMIYIEQLELIHKSGDVLYPVKITRKSSGKTAFHLVPFGLNKTHDLLEVEDASEAIRLVIDERHSIRCSTLTATITNKKGKRIKRTGIYSIKGVNIKEYNVREGHHHHHH,not soluble
8,MSLAHRTVAMVLFNDVLLLDVTGPMDAFAIANRFLPAARQYRLLTLAEGQAVVRGSCGLKVVADRRLEDLPEAVDLLLVPGGPGAYDIALPGIERWLPKAVRQAKRFGAICTGVFLLGRAGLLNGYRCTTHWNYVERLAQAFPEAKVETEQIYVMDRCLITSGGITAGIDLALAVVAEDHGKALALEVAKVLLVARHRQGGQTPYGPLLAAVPRDDSPIARVQAYIVDHIEQAFTVQKMAELVAMSGRNFARTFLREVGITPLQYLQNARIDRTRKLLECGDLPMKVVAAQCGFGSDRHMRKVFFERIGMTPAQYRAQFGGEGHHHHHH,soluble
9,MSLALAIFDLDETLIHGDCASLWSEQMARLGWVDGKDFLRRDHELMEAYGRGHLQMEDYMAFSLEPIAGRTLEEVEHLVAPWVEEVIEPIIYGDACRCIAEHRKRGDRILIISASGTHLVGPIAARLGVDEYLAIELEAVNGVYTGKTHGVLTYREGKITRLLEWLDQEQENLEGASFYSDSRNDLPLLLRVDHPHVVNPDAVLREHAEINGWPTLSWSEGHHHHHH,soluble
10,MSLAMSKVKSITRESWILSTFPEWGSWLNEEIEQEQVAPGTFAMWWLGCTGIWLKSEGGTNVCVDFWCGTGKQSHGNPLMKQGHQMQRMAGVKKLQPNLRTTPFVLDPFAIRQIDAVLATHDHNDHIDVNVAAAVMQNCADDVPFIGPKTCVDLWIGWGVPKERCIVVKPGDVVKVKDIEIHALDAFDRTALITLPADQKAAGVLPDGMDDRAVNYLFKTPGGSLYHSGDSHYSNYYAKHGNEHQIDVALGSYGENPRGITDKMTSADMLRMGEALNAKVVIPFHHDIWSNFQADPQEIRVLWEMKKDRLKYGFKPFIWQVGGKFTWPLDKDNFEYHYPRGFDDCFTIEPDLPFKSFLEGGSHHHHHH,soluble
11,MSLANLKVNLYGMEFLNPIMTAAGPGAKDGALCQEAAKGGAGAICTKTISVLPADVPRPCMAKTNSGFLNTELWSELPKEQWIEEEYKKVKETGLPVIVSMGYSAEQIAEVAPLVKPYADAVELSTHYVGTDVAPIVNALKAAKAVLDVPVFMKMSPHTDIQTIAKAVEEAGADGLVMINSFGPCMAIDVNTGYPIMGSKAGYGWLSGAPIRPLAIRCIYEASQVVNIPIIGVGGITCGKDVAEMMMAGASAVQVCTEAILKGPSIYGKIAKELNEFLDENGEGHHHHHH,not soluble
12,MSLANMHQEPDGSWMVEGQTTVRELNRVLKWGLPANGPRTLNGLILEHLESIPEAGTSLLIQGWPVTILQTQDNRVKMARVQPHHKRRRQPRRHEGHHHHHH,soluble
13,MSLANRIRLHIWGDYACFTRPEMKVERVSYDVITPSAARGILSAIHWKPAINWVIDKIYVLKPIRFESVRRNELGAKISESKVSGAMKRKSVADLYTVIEDDRQQRAATVLKDVAYVIEAHAVMTSKAGVDENTTKHIEMFKRRALKGQCFQQPCMGVREFPAHFALIDDNDPLPLSQLSESEFNRDLGWMLHDIDFEHGNTPHFFRAELKNGVIDVPPFYAEEVKREGHHHHHH,soluble
14,MSLAPLAPLRAHAGRRLTAGLDDATIERLATDHPTLRQAIEAAGSEYALVQAEVADLLDLDEDAQISAVQDGFINFYADDAVTPYVALAARGPWVITLKGAVLYDAGGYGMLGFGHTPEAVLDAMARPQVMANVMTPSLAQRKLDRALRAEIGHTRGGCPFARFMCLNSGSEAVGLAARIVDTNAKLHTDPGARHAGATIKRLVVKGSFHGRTDRPGLYSDSSRKTYSKYLASYRDEDSVIAIAPYDIAALQRAFDEAARNHWFIEAVFLEPVMGEGDPGRALPAEFYAAARTLTRNHGSLLLVDSIQAGLRAHGVLSVVDYPGFEQLDPPDLETYSKALNAAQYPLSVLAVTEQAAQVYRKGTYGNTMTTNPRALDVACATLALFTPQIRDNIRLRGAQALRKLEALQAELGGLITKVQGTGLLFSCELAPQYKCYGAGSTEEWLRHHGVNVIHGGENSLRFTPHFGMDEAELDLLVGLIAKALKEGPRQAQAEAEGHHHHHH,soluble
15,MSLAPRQVNCILRTNEHTQEFFGGSVKSYDSNQLASNSPIEDSRSEASCVHTSGLLLGIFDGHGGPACSQVISKRLMRYIAASLVPPDDLRQHVLNGAQSFSFLSCHNDKARCGYEIKELYEKSFHQFANELTNTTLAGFQMHQTLENAFIRLDQDLSREAIEMPSLRTMSVAMSGAVALVAHIDGPHLHVASVGDCSAVLGTVTDTGQWMAKKLTNEHNSDNVGEVRRLLSEHPATERDTVIRGERLLGQLAPLRAMGDFRYKWSREQLEQLVVPQFGEQVIAPYYLTPPYLSACPEITHHILTPRDKFLIIASDGLWDTMSAMQTVHLVGEHMYGKAFLQPLTLPKQDITLGEISQMLTTRKAGLQKKPLDRNAATHLIRNALGGTEYGVEHSKLSHMLSLPQDIVRLFRDDITITVVYFDSEYLEGHHHHHH,not soluble
16,MSLAQMPLTPNPDQHNAIQRVLKSLHHYQAFLLDGLTGSGKTEVYLQIMHEVLKQGKQVLVLVPEIGLTPQTISRFKSRFHCDVALLHSGLNDSKRLQAWQQAKMGKASIILGTRSAIYTPLPRLGLIILDEEHDLSYKQQEGFRYHARDVALYRGYLEQCPVILGSATPSIDSYHLVEQNKLELLQLNQRAGVALLPKMHLIDLKVAKKNEGLSQILIDQIQHTLDRQEQVLIFLNRRGYAPVLVCESCGWQANCPNCDAHFTLHTQPYGYLHCHHCGTIHRLPETCPECHHHTLKTLGMGTAKVEEHLKTLFPEHDVIRVDRDSTSRVGSWQKIYDRIQHNKPMILLGTQMLAKGHHFPYVTLVAILDIDAGLLSVDVRAPERTAQLIVQVAGRAGRGEHKGHVYMQTLRPDHPMLTTLIEKDYRAVAKDMLEERKAARLPPYRYSVLIRCESRDRDYSQAFLQEIAQMLQHQAGDSIEIWGPIPAPMERKAGRYRAHMVILAQDRARLHFFLRPWWAEVIQLPRQHQLRLSIDVDPQEFNEGHHHHHH,soluble
17,MSLARQNRFDRTSFQTQIIDLSHDGRGVARPHGEGDKVTFVTGALPGEVVIVEPVARNRHFDEARVVEVLQASPQRVIPRCSHFGVCSGCVLQHLAEDAQVVSKQRVLLESLERIGRVSPERVLPALAAESWGYRRKGRFSVRWVEKKGRTLVGFREHDPRFVADVSVCHTVVPQVGEKIALLATLLNSLDGRRDVPQIEFIAGDAVVALTVRHLQPLSEADRLALIEFGKEHGIAIFLQSGGVESVRLLWPDEVLLAFRLKPWDVEFVFRPLDFIQINGGLNEKMIAHALDLLGAGFGERVLDLFCGLGNFTLPLARTVDEVVGVEGDIGLVERARENARRNGLGNAEFFVADLTRDQRDAPWMRQGFDKLLLDPPRSGAIEVLKQLPLKMFERIVYVSCHPGSLARDADFLVNEQGFVLRAVGAMDMFPHTAHVESIAVFDRCEGHHHHHH,soluble
18,MSLARSVVVSAEAVYSHEGEYVGDHVLVDEGLVKSISRGEPHVSVGKRVAVKGFLLPPLVDAHLHMRSLGASFRIVNLKGASSPEEVAKRLAAANSPIAVGRGWNEEEFRPGSRLDRRILDSYLGEKPALAVRICGHVAVANSAFIRESGVDKLFPNLVDRERGLLLEDAVSYAVSVAMKTYNNEELLRDAASALASVGVFGVSSMACSEEEVRALSLIGDALEVRVACYLRRGVEPPPKRAGARWSIVGVKLFADGSLGGRTAYLRRPYISGENEGWRGLKLLSSRDIAEEAVSNSHRGLATAVHAIGDAALDEVLEGFSNAISRGVEPGMLRVEHASLAWPNQIDRLASLRVWTVVQPLFRVSDWWLESRVGSDMLQAAYPFASMLRAGVKLALSTDAPVETYDPAETFKAAVGLCSSRLCRESESLTPRETLKLYTLNSALASGGPVAWLGRLRRGAPALFAVANVDVLNSGRKELEKLKFRGLNLAKEGHHHHHH,soluble
